Measurements as given in article PMC8421203 (Nucleic Acids Research, 2021).
Positions count from the first letter of the chain named. One block for each molecule: values may come before it.

What was measured:
[1] = target: Zebrafish PHF14PZP (278–487) (zebrafish); test: ITC
[2] = target: PHF14 PZP domain, 278-487; test: ITC; settings: reference: unmodified H3(1-15) peptide; sites T3
[3] = target: T1, PHF14PZP E301A (zebrafish, UniProt A0A286Y9D1 278-487, E301A); test: ITC
T1 sequence: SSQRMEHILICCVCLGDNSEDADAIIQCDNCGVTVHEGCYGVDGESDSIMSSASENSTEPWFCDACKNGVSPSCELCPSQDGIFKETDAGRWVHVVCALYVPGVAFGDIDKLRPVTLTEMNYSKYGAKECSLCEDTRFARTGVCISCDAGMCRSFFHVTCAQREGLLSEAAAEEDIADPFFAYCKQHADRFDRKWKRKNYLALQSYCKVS

[4] = Thermal shift assay; format: physicochemical; settings: 2 mg/ml protein, 5× Sypro Orange, 100 mM NaCl, 20 mM HEPES-Na pH 7.5, 25°C to 90°C at 0.5°C per minute
[5] = target: T2, Zebrafish PHF14PZP (278–487) (zebrafish, UniProt A0A286Y9D1 278-487); test: crystal structure
T2 sequence: T1 sequence with A24E

Kd [1]: 12.7 µM
Molecule: unmodified histone H3(1–15) peptide (from UniProt P68431 2-16)

KD [2]: lost; reference 12.7
Molecule: histone H3 1-15 (from UniProt P68431) H3(1-15) T3ph peptide

fold decrease of affinity against wild-type PHF14PZP [3]: ~28 fold
B1: unmodified histone H3(1–15) peptide (peptide)
peptide: ARTKQTARKSTGGKA

B2: H3(1–13)-PHF14PZP: chimeric protein: H3(1–13) fused to the N-terminus of PHF14PZP (aa 278–487) through an 'SGSGS' linker (protein)
chain: ARTKQTARKSTGGSGSGSSSQRMEHILICCVCLGDNSEDADEIIQCDNCGVTVHEGCYGVDGESDSIMSSASENSTEPWFCDACKNGVSPSCELCPSQDGIFKETDAGRWVHVVCALYVPGVAFGDIDKLRPVTLTEMNYSKYGAKECSLCEDTRFARTGVCISCDAGMCRSFFHVTCAQREGLLSEAAAEEDIADPFFAYCKQHADRFDRKWKRKNYLALQSYCKVS
modifications: left off: 10xHis-SUMO, N-terminal, cleaved
positive Tm shift versus free state PHF14PZP [4]: 3.2 °C

binding result [5]: binds
B3: histone H3(1–13), as joined to PHF14PZP in the fusion protein (peptide)
peptide: ARTKQTARKSTGG
